Assay results taken from patent US20100292104A1 (LAWRENCE LIVERMORE NATIONAL SECURITY, published 2010).
Blank lines part the entries; values can stand above or below the binder they belong to.

Biological target: Maltose Binding Protein (MBP)-N-intein fusion protein (Synechocystis sp. PCC6803, UniProt P74750 771-897)
Test: cell-based or functional assay

trans-splicing activity relative to the non-photocaged C-intein polypeptide: 10%
B1: DnaE C-intein polypeptide photocaged at Gly31 (peptide)
peptide: not shown
modifications: Gly31 backbone amide caged with nitroveratryl (1,2-dimethoxy-4-methyl-3-nitro-benzyl) group; C-terminal PEGylated thiol linker; Cys37 protected as S-tBu during synthesis

trans-splicing activity relative to the non-photocaged C-intein polypeptide: ~60%
B2: DnaE C-intein polypeptide photocaged at Gly11 (peptide)
peptide: not shown
modifications: Gly11 backbone amide caged with nitroveratryl (1,2-dimethoxy-4-methyl-3-nitro-benzyl) group; C-terminal PEGylated thiol linker; Cys37 protected as S-tBu during synthesis

trans-splicing activity relative to the non-photocaged C-intein polypeptide: ~30%
B3: DnaE C-intein polypeptide photocaged at Gly6 (peptide)
peptide: not shown
modifications: Gly6 backbone amide caged with nitroveratryl (1,2-dimethoxy-4-methyl-3-nitro-benzyl) group; C-terminal PEGylated thiol linker; Cys37 protected as S-tBu during synthesis

trans-splicing activity relative to the non-photocaged C-intein polypeptide: ~30%
B4: DnaE C-intein polypeptide photocaged at Gly19 (peptide)
peptide: not shown
modifications: Gly19 backbone amide caged with nitroveratryl (1,2-dimethoxy-4-methyl-3-nitro-benzyl) group; C-terminal PEGylated thiol linker; Cys37 protected as S-tBu during synthesis
